The source of these data is US20210032331A1 (PHANES THERAPEUTICS, published 2021).

One experiment addresses T1, B3C.
T1 construct: Chimeric: mouse VH and VL fused to constant regions of human IgG1 heavy chain and kappa light chain; also called the chimeric version of mouse mAb B3; B3 (human IgG1 heavy chain and kappa light chain chimeric)
Description: ELISA peptide competition: peptide (1X, 10X, 50X) preincubated with chimeric IgG1 B3, competitor hLAG3-mFc; capture on anti-human IgG, anti-mouse IgG-HRP. As to the method: (§1) Then human LAG-3 extracellular domain (ECD) fused to mouse Fc (hLAG3-mFc) was added (the final peptide concentration was 600-fold that of hLAG3-mFc) and the mixture was incubated for 60 minutes before being added to an ELISA plate coated with anti-human IgG. The incubation was carried out at 4° C. overnight. After washing, the hLAG3-mFc bound to the immobilized B5/IgG4 on the ELISA plate was detected by adding anti-mouse IgG conjugated to horseradish peroxidase (HRP) and incubating for 60 minutes. Then, after washing, the ELISA was developed using One-step Detection Solution and measured as the absorbance at 450 nm.
(§2) FIGS. 9A-9B show the effect of competition peptides on LAG-3 binding to anti-LAG-3 mAbs.
(§3) Anti-human IgG in carbonate coating buffer was coated on an ELISA plate at 4° C. (50 μL/well at 1 μg/mL) overnight. In each well of a separate plate, a chimeric version of a given anti-LAG-3 mAb (50 μL/well at 1.4 nM) and a competition peptide (50 μL/well at various concentrations as indicated in the figures) were mixed and incubated for 30 minutes at room temperature. Then human LAG-3 extracellular domain (ECD) fused to mouse Fc (hLAG3-mFc) was added to each well (50 μL/well at 2 nM) and the final mixture was incubated at room temperature for 60 minutes before added to the ELISA plate (50 μL/well) for another 60-minute incubation. The final incubation after adding the mixture to the ELISA plate was also performed at 4° C. overnight in some assays.
A general note: In an ELISA, binding on a coated surface is turned into a signal by an enzyme label.

Another experiment deals with T2, B4C.
T2 construct: Chimeric: mouse VH and VL fused to constant regions of human IgG1 heavy chain and kappa light chain; also called the chimeric version of mouse mAb B4; B4 (human IgG1 heavy chain and kappa light chain chimeric)
Description: ELISA peptide competition: peptide (1X, 10X, 50X) preincubated with chimeric IgG1 B4, competitor hLAG3-mFc; capture on anti-human IgG, anti-mouse IgG-HRP. As to the method:
as §1, §2, §3

In the next experiment the target is T3, B7/IgG4.
T3 construct: Chimeric: mouse VH and VL with human IgG4 heavy chain and kappa light chain constant regions; also called B7 (human IgG4 heavy chain and kappa light chain chimeric)
Description: ELISA peptide competition: peptide preincubated with B7/IgG4, competitor hLAG3-mFc; peptide at 600-fold hLAG3-mFc; final incubation 60 min at room temperature; anti-mouse IgG-HRP. How it is done:
as §1, with “B5/IgG4 was preincubated with a competition peptide for 30 minutes. Then human” for “Then human”
The assay condition is the same as in FIG. 5A except that the final incubation of the mAb, the competition peptide, and hLAG3-mFc on the ELISA plate was performed at room temperature for 60 minutes instead of incubation at 4° C. overnight.
as §3, with “incubation.” for “incubation. The final incubation after adding the mixture to the ELISA plate was also performed at 4° C. overnight in some assays.”

Experiment [1] deals with T4, full-length human LAG-3 on stably transfected CHO-S cells (human, UniProt P18627 23-525).
T4 construct: also called hLAG3
T4 sequence: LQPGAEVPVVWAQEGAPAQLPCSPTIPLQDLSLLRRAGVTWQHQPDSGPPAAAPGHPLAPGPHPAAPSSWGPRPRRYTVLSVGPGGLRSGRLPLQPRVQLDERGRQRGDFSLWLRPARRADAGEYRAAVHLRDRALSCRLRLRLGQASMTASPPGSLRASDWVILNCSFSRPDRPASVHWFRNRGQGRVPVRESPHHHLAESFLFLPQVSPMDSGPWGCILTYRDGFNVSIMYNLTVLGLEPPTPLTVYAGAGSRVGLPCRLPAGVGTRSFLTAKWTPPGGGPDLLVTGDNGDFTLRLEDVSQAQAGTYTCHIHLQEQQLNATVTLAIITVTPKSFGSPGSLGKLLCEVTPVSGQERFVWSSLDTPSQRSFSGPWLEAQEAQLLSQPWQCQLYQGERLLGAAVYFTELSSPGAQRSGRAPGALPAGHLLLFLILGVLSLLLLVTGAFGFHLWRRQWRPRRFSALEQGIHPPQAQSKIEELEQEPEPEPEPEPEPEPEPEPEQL
Description: FACS, CHO-S cells stably transfected with full-length human LAG-3, PE anti-mouse IgG. As to the method: CHO-S cells stably transfected with full-length human LAG-3 were transferred to a 96-well plate. Around 200,000 cells were incubated with either purified chimeric anti-LAG-3 mAbs (variable regions of mouse mAbs fused to the constant regions of human IgG1 heavy chain and kappa light chain, respectively) or purified mouse anti-LAG-3 mAbs from hybridoma supernatants at various concentrations for 15 minutes at 4° C. Cells were then centrifuged at 1,000 rpm for 5 minutes and washed with FACS buffer (PBS supplemented with 5% BSA) three times. For the cells treated with the chimeric antibodies, the cells were then incubated with PE-conjugated goat anti-human IgG polyclonal antibodies and incubated on ice for another 15 minutes; for the cells treated with mouse mAbs, the cells were incubated with PE-conjugated goat anti-mouse IgG polyclonal antibodies and incubated on ice for another 15 minutes. Cells were then washed with FACS buffer three times and then resuspended in FACS buffer containing 0.1 μg/ml PI (propidium iodide) for live/dead cell gating. Cells were then run through the FACS Caliber instrument and the data were analyzed by the Flowjo software. Results of the FACS binding analysis of the mouse anti-LAG-3 mAbs (B1, B2, B3, B4, B5, B6, B7, B8, B9, B10, B11, B12, and B13) are provided in FIGS. 1A-1B.
(In flow cytometry, cells or beads pass a laser one at a time.)

Another experiment deals with T5, B5/IgG4.
T5 construct: Chimeric: mouse VH and VL with human IgG4 heavy chain and kappa light chain constant regions; also called B5 (human IgG4 heavy chain and kappa light chain chimeric)
T5 sequence (VH, as listed by the source, chain 1 of 2): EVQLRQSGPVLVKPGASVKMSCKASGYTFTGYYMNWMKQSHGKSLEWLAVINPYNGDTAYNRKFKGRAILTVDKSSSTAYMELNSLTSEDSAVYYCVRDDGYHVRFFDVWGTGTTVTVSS
T5 sequence (VL, as listed by the source, chain 2 of 2): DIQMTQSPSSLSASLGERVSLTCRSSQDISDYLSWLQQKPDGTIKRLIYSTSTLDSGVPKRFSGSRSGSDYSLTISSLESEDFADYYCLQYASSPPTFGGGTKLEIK
Description: ELISA peptide competition: peptide preincubated with B5/IgG4, competitor hLAG3-mFc; peptide at 600-fold hLAG3-mFc; capture on anti-human IgG, anti-mouse IgG-HRP. How it is done: as §1, with “FIGS. 5A-5D show the effect of competition peptides on LAG-3 binding to anti-LAG-3 mAbs. […] B5/IgG4 was preincubated with a competition peptide for 30 minutes. Then human” for “Then human”
as §3, with “assays. The plate was washed and the binding of hLAG3-mFc to the immobilized anti-LAG-3 mAb was detected by adding anti-mouse IgG conjugated to horseradish peroxidase ([…]) (ThermoFisher Scientific, Cat#: A16084; Waltham, Mass.) and incubating for 60 minutes.” for “assays.”

Experiment [2] has as its target T6, BG29 (human IgG4 heavy chain and kappa light chain chimeric).
T6 construct: Chimeric: mouse VH and VL with human IgG4 heavy chain and kappa light chain constant regions; also called chimeric BG29
Description: ELISA peptide competition: peptide preincubated with chimeric IgG4 BG29, competitor hLAG3-mFc; peptide at 200-fold hLAG3-mFc; capture on anti-human IgG, anti-mouse IgG-HRP. As to the method: as §1, with “FIGS. 5A-5D show the effect of competition peptides on LAG-3 binding to anti-LAG-3 mAbs. […] B5/IgG4 was preincubated with a competition peptide for 30 minutes. Then human” for “Then human”
as §3, with “assays. The plate was washed and the binding of hLAG3-mFc to the immobilized anti-LAG-3 mAb was detected by adding anti-mouse IgG conjugated to horseradish peroxidase ([…]) (ThermoFisher Scientific, Cat#: A16084; Waltham, Mass.) and incubating for 60 minutes.” for “assays.”

The target in experiment [3] is T7, B12 (human IgG1 heavy chain and kappa light chain chimeric).
T7 construct: Chimeric: mouse VH and VL with human IgG1 heavy chain and kappa light chain constant regions
Description: ELISA peptide competition: peptide preincubated with chimeric IgG1 B12, competitor hLAG3-mFc; peptide at 600-fold hLAG3-mFc; capture on anti-human IgG, anti-mouse IgG-HRP. How it is done: as §1, with “FIGS. 5A-5D show the effect of competition peptides on LAG-3 binding to anti-LAG-3 mAbs. […] B5/IgG4 was preincubated with a competition peptide for 30 minutes. Then human” for “Then human”
as §3, with “assays. The plate was washed and the binding of hLAG3-mFc to the immobilized anti-LAG-3 mAb was detected by adding anti-mouse IgG conjugated to horseradish peroxidase ([…]) (ThermoFisher Scientific, Cat#: A16084; Waltham, Mass.) and incubating for 60 minutes.” for “assays.”

B1: 16-30 (peptide)
peptide: HPAAPSSWGPRPRRY
notes: also called peptide 16-30
Turning to B1, the binding result with B3C, in the experiment with B4C and with B7/IgG4 was “binds” each time.

B2: BG27 (antibody, V domains shown)
VH: QAYLQQSGADLVRPGASVKMSCKASGYTFTSYDMHWVKQTPRQGLEWIGAIYPGNGDASYNQKFKGKATLTVDKASSTAFMQLSSLTSEDSAVYFCARGDYGNYVWFAYWGQGTLVTVSA
VL: DVVMTQTPLSLPVSLGDQASISCRSSQTIVHSNRYTYLEWYLQKPGQSLKLLIYGVSNRFSGVPDRFSGSGSGTDFTLKISRVEAEDMGVYYCFQGTHVPPTFGAGTKLELK
notes: Mouse mAb from hybridoma; also called mouse anti-LAG-3 mAb BG27
For orientation: EC50 (read off the curve) means the concentration needed to bring the measured effect to its halfway point. Turning to B2, the “EC50 (read off the curve)” value in experiment [1] is around 0.3 µg/mL.

B3: 1-13 (peptide)
peptide: GPPAAAPGHPLAP
notes: also called peptide 1-13
Regarding B3, the binding result (in the experiment with B5/IgG4; in experiment [2]) was “binds” in each case.

B4: BG29 (antibody, V domains shown)
VH: QIQLQQSGPEVVKPGASVRISCKASGYTFSDYHINWVKQKPGQGLEWIGWIYPGRGDPEYNEKFKGKATLTVDRSASTAYMQLSSLTSEDTSVYFCEIYYGNYIDYWGQGTTLTVSS
VL: DIVMTQAAPSVPVTPGESVSISCRSSKSLLHSDGKTYLYWFLQRPGQSPQRLIYYMSNLASGVPDRFSGRGSGTDFTLRISRVEAEDVGVYYCMQSLEYPWTFGGGTKLEIK
notes: Mouse mAb from hybridoma; also called mouse anti-LAG-3 mAb BG29
As for B4, in experiment [1], the “EC50 (read off the curve)” value is around 0.2 µg/mL.

B5: BG33 (antibody, V domains shown)
VH: QIQLQQSGPEVVKPGASVKISCKASGYTFSDYHINWVKQKPGQGLEWIGWIYPGRGNPEYNEKFKGKATLTVDRSANTAYMQLSSLTSEDSSVYFCEIYYGNYLDYWGQGTTLTVSS
VL: DIVMTQAAPSVPVTPGESVSISCRSSKSLLHSDGKTYLYWFLQRPGQSPQRLIYYMSNLASGVPDRFSGRGSGTDFTLRISRVEAEDVGVYYCMQSLEYPWTFGGGTKLEIK
notes: Mouse mAb from hybridoma; also called mouse anti-LAG-3 mAb BG33
On to B5, for which the “EC50 (read off the curve)” value in experiment [1] was around 0.4 µg/mL.

B6: 1-30 (peptide)
peptide: GPPAAAPGHPLAPGPHPAAPSSWGPRPRRY
notes: also called peptide 1-30
On to B6, for which the binding result (in experiment [2]; with B7/IgG4) was “binds” in each case.

B7: 2-14 (peptide)
peptide: PPAAAPGHPLAPG
notes: also called peptide 2-14
For B7, the binding result (in the experiment with B5/IgG4; in experiment [3]; in experiment [2]) was “binds” each time.

B8: 1-14 (peptide)
peptide: GPPAAAPGHPLAPG
notes: also called peptide 1-14
On to B8, for which the binding result (with B5/IgG4; in experiment [3]; in experiment [2]) was “binds” in each case.
